The target in test [1] is IntC-CCre tagged with FLAG (UniProt P06956).
The target is the same in test [2]. The source holds these as a separate data set.
For test [3] the target is unchanged. This is another data set of the same source.

“NCre-IntN tagged with HA (from UniProt P06956 1-59)” returned a DsRed fluorescence from a LoxP-stop-LoxP DsRed reporter in HEK293T cells cotransfected with both constructs (none with either alone) in test [1] of 99%. For the same substance, the TdTomato fluorescence in striatal neurons of Dlx6-CCre-IRES-eGFP reporter mice injected with NCre-IntN-mTagBFP2 lentivirus in test [2] is 78.3%. This substance also showed a TdTomato expression in neurons of the central amygdala after injection of FuG-E-NCre-IntN retrograde lentivirus into the dorsal striatum of Dlx6-CCre-IRES-eGFP::LoxP-stop-LoxP-TdTomato mice in test [3] of 89.9%.

For the origin of these results see paper PMC7331137.
